In patent publication US7829082B2, “Catheter composition and uses thereof” (Genentech, Inc., priority 2001, dated 2010):
“And” between values parts separate entries of the source, which are not always exact repeats. Equal values may be shown once.

How the values were obtained:
[1] = biological target: T1, in vitro clot consisting of plasminogen and fibrin (Homo sapiens, UniProt P00747+P02671+P02675+P02679); assay: Clot lysis assay of tenecteplase; format: biochemical; settings: for overall percent specific activity of the recovered protein: over 24 hours at ambient conditions; for Clot lysis (+cent): after centrifugation; for Clot lysis (−cent): before centrifugation
T1 construct: Plasminogen kept frozen at or below −60° C. until use; purchased Biocell (fibrinogen); Calbiochem (thrombin)
From the text: The assay works as follows: Reagents are substances added to a solution of another substance to participate in a chemical reaction. In this case, contents of boat 1 will react with contents of boat 2 to form a standardized clot. Thrombin (boat 2), when mixed with plasminogen and fibrinogen (boat 1), causes the conversion of fibrinogen to fibrin and forms a standardized in vitro clot consisting of plasminogen and fibrin. A test sample of t-PA is then exposed to the clot. T-PA causes the conversion of plasminogen to plasmin, and plasmin then breaks apart the fibrin strands. As the clot breaks apart, there is a change in the absorbance (light) characteristics. The absorbance is plotted versus time.
In such test, thrombin and fibrinogen are mixed together to produce fibrin; plasminogen and tenecteplase are mixed together to produce plasmin; and together the fibrin and plasmin lyse the clot. The test measures the effectiveness of tenecteplase to act with plasminogen to form plasmin and thus lyse the clot.
(§1) Tenecteplase (TNKASE™ variant of t-PA), obtained from Genentech, Inc. (e.g., U.S. Pat. No. 5,612,029) (50 mg/vial) was reconstituted to 5 mg/mL with 10 mL of SWFI. Using a 3 & 5 cc syringe and 22 G needle, 1, 2, and 5 mL of normal saline (NS) was removed from separate IV bags (500 mL NS, Baxter), in duplicates. The same volume was replaced with the reconstituted drug product to give a final tenecteplase concentration inside the bags of 0.01, 0.02, and 0.05 mg/mL. The bags were then mixed gently by inversions. A 10-mL aliquot of the diluted tenecteplase solution was sampled via the IV port with a 10-cc syringe and dispensed into two 5-cc clean clear glass vials (6 mL in one and the remaining in the other). The IV bags containing the diluted tenecteplase were placed on a bench top under normal fluorescent light at ambient conditions for 24 hours. Additional aliquots (10 mL each) from these IV bags were sampled after 8 and 24 hours of storage.
All the aliquots of tenecteplase were subjected to the clot lysis assay described above to determine the in vitro bioactivity of tenecteplase in these aliquots. The samples were diluted to two or three different concentrations within assay range (200-500 ng/mL) with the diluent. Tenecteplase was used as an internal reference. All values obtained were normalized to the tenecteplase reference material. The bioactivity was assayed by clot lysis before and after centrifugation.

[2] = pH of tenecteplase dilutions; format: physicochemical; settings: for observed pH: over 24 hours of storage at ambient conditions
Description: as §1
The pH determination was performed using a RADIOMETER PHM 93™ pH meter and a microelectrode (MI-410™, Microelectrode, Inc.). The pH meter was standardized with pH 4.01 and 7.00 buffer standards prior to measurement at ambient conditions.

[3] = Tenecteplase concentration by RP-HPLC before and after centrifugation; format: physicochemical; settings: for Conc. (+cent) by RP-HPLC: after centrifugation; for Conc. (−cent) by RP-HPLC: before centrifugation
Description: as §1
The clot lysis activity and protein concentrations (determined by RP-HPLC) were performed before and after centrifugation of each sample aliquot. This was to ensure that any precipitation that was not visible to the naked eye was removed prior to assay for more accurate interpretation of the results. […] At 0.01 mg/mL, the percent change in concentration was 57% immediately after dilution and increased to 71% after 24 hours. […] This observation can be explained, without being limited to any one theory, by a more pronounced protein adsorption at a lower concentration that usually occurs instantly and saturates with time.

[4] = targeted conc. 0.01 mg/mL in 0.9% NaCl IV bag, T = 0
[5] = targeted conc. 0.01 mg/mL in 0.9% NaCl IV bag, T = 8 hours ambient
[6] = targeted conc. 0.01 mg/mL in 0.9% NaCl IV bag, T = 24 hours ambient
[7] = targeted conc. 0.02 mg/mL in 0.9% NaCl IV bag, T = 0
[8] = targeted conc. 0.02 mg/mL in 0.9% NaCl IV bag, T = 8 hours ambient
[9] = targeted conc. 0.02 mg/mL in 0.9% NaCl IV bag, T = 24 hours ambient
[10] = targeted conc. 0.05 mg/mL in 0.9% NaCl IV bag, T = 0
[11] = targeted conc. 0.05 mg/mL in 0.9% NaCl IV bag, T = 8 hours ambient
[12] = targeted conc. 0.05 mg/mL in 0.9% NaCl IV bag, T = 24 hours ambient

T1 sequence (P00747 20-810 limits assumed): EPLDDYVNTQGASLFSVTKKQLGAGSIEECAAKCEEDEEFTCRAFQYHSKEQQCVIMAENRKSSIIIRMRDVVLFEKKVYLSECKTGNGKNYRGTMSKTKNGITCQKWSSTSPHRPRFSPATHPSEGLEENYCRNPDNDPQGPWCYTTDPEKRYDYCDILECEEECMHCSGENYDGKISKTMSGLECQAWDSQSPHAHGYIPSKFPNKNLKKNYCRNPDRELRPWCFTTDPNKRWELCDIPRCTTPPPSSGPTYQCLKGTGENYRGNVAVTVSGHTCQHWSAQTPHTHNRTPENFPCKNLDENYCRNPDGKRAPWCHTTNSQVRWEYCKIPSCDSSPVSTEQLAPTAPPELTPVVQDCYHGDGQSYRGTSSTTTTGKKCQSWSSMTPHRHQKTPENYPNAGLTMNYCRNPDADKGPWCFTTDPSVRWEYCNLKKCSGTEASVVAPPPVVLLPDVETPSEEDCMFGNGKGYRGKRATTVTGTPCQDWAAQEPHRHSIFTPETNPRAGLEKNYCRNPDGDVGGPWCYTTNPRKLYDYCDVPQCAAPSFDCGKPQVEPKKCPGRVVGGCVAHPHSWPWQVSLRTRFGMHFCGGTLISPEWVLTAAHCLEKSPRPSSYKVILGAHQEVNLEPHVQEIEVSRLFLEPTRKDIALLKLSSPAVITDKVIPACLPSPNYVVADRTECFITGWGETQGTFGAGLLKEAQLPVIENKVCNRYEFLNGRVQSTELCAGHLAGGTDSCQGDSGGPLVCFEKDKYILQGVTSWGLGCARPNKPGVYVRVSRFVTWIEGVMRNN
T1 sequence (P02671 36-629 limits assumed): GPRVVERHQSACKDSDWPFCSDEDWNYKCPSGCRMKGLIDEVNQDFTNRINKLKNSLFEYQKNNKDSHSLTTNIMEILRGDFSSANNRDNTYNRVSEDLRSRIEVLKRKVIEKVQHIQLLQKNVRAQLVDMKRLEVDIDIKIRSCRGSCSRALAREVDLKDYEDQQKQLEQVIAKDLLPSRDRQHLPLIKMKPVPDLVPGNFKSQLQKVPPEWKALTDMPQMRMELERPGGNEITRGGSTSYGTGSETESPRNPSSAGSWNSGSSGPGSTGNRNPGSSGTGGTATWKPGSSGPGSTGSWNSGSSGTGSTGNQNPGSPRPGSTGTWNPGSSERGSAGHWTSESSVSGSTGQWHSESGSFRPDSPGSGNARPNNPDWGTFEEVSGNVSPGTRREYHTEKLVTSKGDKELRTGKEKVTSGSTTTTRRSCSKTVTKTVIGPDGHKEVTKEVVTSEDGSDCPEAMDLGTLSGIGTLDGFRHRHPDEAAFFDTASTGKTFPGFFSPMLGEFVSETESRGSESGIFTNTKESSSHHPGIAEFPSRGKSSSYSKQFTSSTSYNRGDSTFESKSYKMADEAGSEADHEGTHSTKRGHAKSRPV
T1 sequence (P02675 45-491 limits assumed): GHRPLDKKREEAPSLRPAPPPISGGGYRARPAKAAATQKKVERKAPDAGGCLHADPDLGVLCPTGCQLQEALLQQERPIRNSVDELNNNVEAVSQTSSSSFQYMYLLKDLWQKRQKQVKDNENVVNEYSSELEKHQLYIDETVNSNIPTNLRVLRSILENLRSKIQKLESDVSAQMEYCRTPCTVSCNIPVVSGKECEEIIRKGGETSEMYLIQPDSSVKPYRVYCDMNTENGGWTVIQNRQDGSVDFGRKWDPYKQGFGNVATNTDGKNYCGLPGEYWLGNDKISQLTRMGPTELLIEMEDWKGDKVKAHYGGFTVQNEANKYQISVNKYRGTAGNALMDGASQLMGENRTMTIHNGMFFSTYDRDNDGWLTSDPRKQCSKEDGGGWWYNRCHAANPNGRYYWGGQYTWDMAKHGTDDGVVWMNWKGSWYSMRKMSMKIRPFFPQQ
T1 sequence (P02679 27-437 isoform P02679-2 limits assumed): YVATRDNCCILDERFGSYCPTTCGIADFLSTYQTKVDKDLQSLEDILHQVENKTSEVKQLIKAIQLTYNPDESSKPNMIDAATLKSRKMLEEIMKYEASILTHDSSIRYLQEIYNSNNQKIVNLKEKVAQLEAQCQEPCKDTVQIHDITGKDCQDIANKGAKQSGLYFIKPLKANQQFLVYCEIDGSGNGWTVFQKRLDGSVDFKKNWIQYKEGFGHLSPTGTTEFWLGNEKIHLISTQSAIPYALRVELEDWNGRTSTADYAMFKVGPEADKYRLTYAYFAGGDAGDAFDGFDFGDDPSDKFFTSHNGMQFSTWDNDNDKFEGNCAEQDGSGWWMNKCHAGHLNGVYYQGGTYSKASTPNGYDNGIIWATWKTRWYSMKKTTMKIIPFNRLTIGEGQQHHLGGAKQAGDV

B1: Tenecteplase: a t-PA variant designated T103N, N117Q, K296A, H297A,R298A,R299A available as TNKASE™ brand from Genentech, Inc.; diluted in 0.9% NaCl (protein, UniProt P00750 36-562, looked up, variant T103N N117Q K296A H297A R298A R299A)
Tissue-type plasminogen …: SYQVICRDEKTQMIYQQHQSWLRPVLRSNRVEYCWCNSGRAQCHSVPVKSCSEPRCFNGGTCQQALYFSDFVCQCPEGFAGKCCEIDTRATCYEDQGISYRGNWSTAESGAECTNWQSSALAQKPYSGRRPDAIRLGLGNHNYCRNPDRDSKPWCYVFKAGKYSSEFCSTPACSEGNSDCYFGNGSAYRGTHSLTESGASCLPWNSMILIGKVYTAQNPSAQALGLGKHNYCRNPDGDAKPWCHVLKNRRLTWEYCDVPSCSTCGLRQYSQPQFRIKGGLFADIASHPWQAAIFAAAAASPGERFLCGGILISSCWILSAAHCFQERFPPHHLTVILGRTYRVVPGEEEQKFEVEKYIVHKEFDDDTYDNDIALLQLKSDSSRCAQESSVVRTVCLPPADLQLPDWTECELSGYGKHEALSPFYSERLKEAHVRLYPSSRCTSQHLLNRTVTDNMLCAGDTRSGGPQANLHDACQGDSGGPLVCLNDGRMTLVGIISWGLGCGQKDVPGVYTKVTNYLDWIRDNMRP
overall percent specific activity of the recovered protein ([1]; 0.01 mg/mL): ≥ 100%
overall percent specific activity of the recovered protein ([1]; 0.02 mg/mL): ≥ 92%
overall percent specific activity of the recovered protein ([1]; 0.05 mg/mL): ≥ 80%
Lytic activity in clot lysis effectiveness test ([1]; diluted down to 0.01 mg/mL in normal saline): lytically active
Lytic activity after storage ([1]; diluted to 0.01, 0.02, and 0.05% mg/mL in 0.9% NaCl IV bags (500 mL), after 24 hours of storage at ambient conditions): lytically active
% Specific Activity [1, 4]: 100%
Clot lysis (+cent) [1, 4]: 0.004 mg/mL
Clot lysis (−cent) [1, 4]: 0.006 mg/mL
% Specific Activity [1, 5]: 125% and 120%
Clot lysis (+cent) [1, 5]: 0.005 mg/mL and 0.006 mg/mL
Clot lysis (−cent) [1, 5]: 0.007 mg/mL and 0.008 mg/mL
% Specific Activity [1, 6]: 100% and 120%
Clot lysis (+cent) [1, 6]: 0.005 mg/mL and 0.006 mg/mL
Clot lysis (−cent) [1, 6]: 0.007 mg/mL
% Specific Activity [1, 7]: 92%
Clot lysis (+cent) [1, 7]: 0.012 mg/mL
Clot lysis (−cent) [1, 7]: 0.015 mg/mL
% Specific Activity [1, 8]: 92%
Clot lysis (+cent) [1, 8]: 0.012 mg/mL
Clot lysis (−cent) [1, 8]: 0.015 mg/mL and 0.013 mg/mL
% Specific Activity [1, 9]: 100% and 92%
Clot lysis (+cent) [1, 9]: 0.013 mg/mL and 0.012 mg/mL
Clot lysis (−cent) [1, 9]: 0.015 mg/mL and 0.016 mg/mL
% Specific Activity [1, 10]: 82% and 78%
Clot lysis (+cent) [1, 10]: 0.037 mg/mL and 0.036 mg/mL
Clot lysis (−cent) [1, 10]: 0.040 mg/mL and 0.041 mg/mL
% Specific Activity [1, 11]: 76% and 82%
Clot lysis (+cent) [1, 11]: 0.034 mg/mL and 0.037 mg/mL
Clot lysis (−cent) [1, 11]: 0.039 mg/mL
% Specific Activity [1, 12]: 93% and 91%
Clot lysis (+cent) [1, 12]: 0.040 mg/mL
Clot lysis (−cent) [1, 12]: 0.043 mg/mL
observed pH ([2]; 0.01 mg/mL in NS): 6.7-6.8
observed pH ([2]; 0.02 mg/mL in NS): 6.8-6.9
observed pH ([2]; 0.05 mg/mL in NS): 7.1-7.2
pH [2, 4]: 6.70 and 6.73
pH [2, 6]: 6.77 and 6.71
pH [2, 7]: 6.93 and 6.83
pH [2, 9]: 6.86 and 6.90
pH [2, 10]: 7.12 and 7.15
pH [2, 12]: 7.10 and 7.07
% Change in Conc. (±cent) [3, 4]: 57%
Conc. (+cent) by RP-HPLC [3, 4]: 4 µg/mL
Conc. (−cent) by RP-HPLC [3, 4]: 7 µg/mL
% Change in Conc. (±cent) [3, 5]: 57% and 63%
Conc. (+cent) by RP-HPLC [3, 5]: 4 µg/mL and 5 µg/mL
Conc. (−cent) by RP-HPLC [3, 5]: 7 µg/mL and 8 µg/mL
% Change in Conc. (±cent) [3, 6]: 71%
Conc. (+cent) by RP-HPLC [3, 6]: 5 µg/mL
Conc. (−cent) by RP-HPLC [3, 6]: 7 µg/mL
% Change in Conc. (±cent) [3, 7]: 76%
Conc. (+cent) by RP-HPLC [3, 7]: 13 µg/mL
Conc. (−cent) by RP-HPLC [3, 7]: 17 µg/mL
% Change in Conc. (±cent) [3, 8]: 81%
Conc. (+cent) by RP-HPLC [3, 8]: 13 µg/mL
Conc. (−cent) by RP-HPLC [3, 8]: 16 µg/mL
% Change in Conc. (±cent) [3, 9]: 81%
Conc. (+cent) by RP-HPLC [3, 9]: 13 µg/mL
Conc. (−cent) by RP-HPLC [3, 9]: 16 µg/mL
% Change in Conc. (±cent) [3, 10]: 94% and 98%
Conc. (+cent) by RP-HPLC [3, 10]: 45 µg/mL and 46 µg/mL
Conc. (−cent) by RP-HPLC [3, 10]: 48 µg/mL and 47 µg/mL
% Change in Conc. (±cent) [3, 11]: 96%
Conc. (+cent) by RP-HPLC [3, 11]: 45 µg/mL
Conc. (−cent) by RP-HPLC [3, 11]: 47 µg/mL
% Change in Conc. (±cent) [3, 12]: 90% and 96%
Conc. (+cent) by RP-HPLC [3, 12]: 43 µg/mL and 44 µg/mL
Conc. (−cent) by RP-HPLC [3, 12]: 48 µg/mL and 46 µg/mL
